From patent publication US9951335B2, “Compositions and methods for treating otitis media and other conditions with inhibitors of CYLD” (Georgia State University Research Foundation, Inc., priority 2012, dated 2018) come the findings set out here.

The subject of series [1] is Akt. In words: Akt ubiquitination in cells (immunoprecipitation, immunoblotting). As to conditions: epithelial cells. The format is cell-based, human. How it is done:
Western blot, immunoprecipitation and ubiquitination experiments were performed as follows. Western blots were performed using whole-cell extracts, separated on 8 or 10% SDS-PAGE gels, and transferred to polyvinylidine di& uoride membranes. The membrane was blocked with a solution of PBS containing 0.1% Tween 20 (PBS-T) and 5% BSA. The membrane was then incubated in a 1:2,000 dilution of a primary antibody in 5% BSA-PBS-T. After three washes in PBS-T, the membrane was incubated with 1:5,000 dilution of the corresponding secondary antibody in 3% non-fact skim milk-PBS-T. Respective proteins were visualized by using enhanced chemiluminescence detection reagents, according to the manufacturer's instructions. To conduct immunoprecipitation analysis, cell lysates were incubated with 1 μg of primary antibodies overnight, at 4° C., followed by 2-h incubation with protein A/G-agarose beads (Invitrogen). Immunoprecipitates were then suspended in a sample buffer, separated on 8% SDS-PAGE, transferred to polyvinylidine difluoride membrane, and detected by immunoblot analysis, as described above. […]
A general note: A western blot detects proteins with antibodies after separation by electrophoresis.

Series [2] concerns TGF-β-signalling. Kind of series: TGF-β-induced SBE-promoter activity in mouse MEF cells. The format is cell-based. How it is done:
(§1) The expression plasmids Flag-WT-CYLD, HA-WT-CYLD, Flag-H/N-CYLD, HA-C/S-CYLD, Flag-WT-Smad3, C/A-TβRI, and the reporter plasmids SBE-Luc, PAI-1-Luc, and NF-κB-Luc were previously described. Flag-WT-Akt1, pRK5-HA-Ub WT, pRK5-HA-Ub K63, and pRK5-HA-Ub K48 were from Addgene, and K to R mutants of Akt were generated with WT-Akt1 using QuickChange XL Site-Directed Mutagenesis kit (Stratagene). All transient transfections were carried out using TransIT-LT1 reagent (Minis) or Lipofectamine (Invitrogen) according to manufacturers' instructions.

The test system of series [3] is TGF-β-signalling. In words: TGF-β-induced SBE-promoter (SBE-Luc) activity in human epithelial cells. The class given is cell-based. On the procedure:
as §1

The test system of series [4] is PAI-1. In words: TGF-β-induced PAI-1 expression (promoter activity, mRNA) in human cells. As to conditions: A549 and HeLa cells. The class given is cell-based. On the procedure: Total RNA was isolated using TRIzol reagent following the manufacturer's instructions. Synthesis of complementary DNA from total RNA was performed with MultiScribe reverse transcriptase. Real-time quantitative PCR was performed using an ABI 7500 Sequence Detection System (Applied Biosystems). Relative quantities of mRNAs were calculated using the comparative threshold cycle method and normalized using human and mouse glyceraldehyde-3-phosphate dehydrogenase as an endogenous control. The primer sequences for mouse COL1A2, COL3A1, CTGF and PAI-1, and human PAI-1, CHIP, and Smad3 are as follows. Mouse CTGF: 5′-[…]-3′ (SEQ ID NO:1) and 5′-[…]-3′ (SEQ ID NO:2); mouse COL1A2: 5′-[…]-3′ (SEQ ID NO:3) and 5′-[…]-3′ (SEQ ID NO:4); mouse COL3A1: 5′-[…]-3′ (SEQ ID NO:5) and 5′-[…]-3′ (SEQ ID NO:6); mouse PAI-1: 5′-[…]-3′ (SEQ ID NO:7) and 5′-[…]-3′ (SEQ ID NO:8); human PAI-1: 5′-[…]-3′ (SEQ ID NO:9) and 5′-[…]-3′ (SEQ ID NO:10); human CHIP: 5′-[…]-3′ (SEQ ID NO:11) and 5′-[…]-3′ (SEQ ID NO:12).
as §1

The test system of series [5] is TGF-β-induced fibrotic response. Kind of series: TGF-β-induced fibrotic response in TRAF6-depleted cells. The format is cell-based. From the text: Because K14 lysine in the pleckstrin homology domain of Akt is critical for mediating its function, we next determined whether mutation of K14 lysine to arginine (R) reduces polyubiquitination of Akt. […] We further determined whether K14 residue in Akt is indeed functionally critical for mediating CYLD-induced inhibition of TGF-β-signalling. […] TNF receptor-associated factor 6 (TRAF6) was previously shown to function as an E3 ligase for Akt-K63 polyubiquitination and CYLD deubiquitinates TRAF6. Thus, we next explored the possibility that CYLD may inhibit Akt-mediated fibrotic responses via deubiquitinating TRAF6.
It is possible that CYLD may inhibit Akt-mediated fibrotic response by actually deubiquitinating TRAF6. Thus, we evaluated the effect of siCYLD on TGF-β-induced fibrotic response in TRAF6-depleted cells using siTRAF6. […] Here we have provided strong evidence that CYLD inhibits S. pneumoniae-induced Smad3-dependent fibrosis via inhibiting Akt, thereby linking CYLD to Smad3 via Akt. It is still unclear whether or not direct activation of Akt induces a fibrotic response via Smad3. Indeed, direct activation of Akt by expressing a constitutively active form of C/A-Akt induces expression of the fibrotic response gene PAI-1 and CTGF in Smad3+/+ cells, but not in Smad3−/− cells. […]

In series [6] the test system is PAI-1. Kind of series: TGF-β-induced PAI-1 expression in Akt1−/− cells. The format is cell-based. From the text: Thus, we determined the effect of knockdown of both Akt1 and 2 on Smad3 protein level in these cells. […] We further confirmed whether activation of Akt does induce upregulation of fibrotic response gene expression via Smad3. Activation of Akt by expressing a constitutively active C/A-Akt indeed induced expression of PAI-1 and CTGF in Smad3+/+ cells, but not in Smad3−/− cells. […] PI3 K is known as the one of the major signalling molecules upstream of Akt. We thus determined whether PI3K, like Akt, is also involved in mediating CYLD-dependent Smad3 degradation by evaluating the effect of PI3K and Akt inhibitors on Smad3 protein expression. […] Further studies are needed to determine whether CYLD-Akt-mediated regulation of Smad3 is indeed independent of PI3K by using more specific approaches.

B1: siCYLD: RNA-mediated interference for downregulating CYLD expression using pSuper-CYLD, SEQ ID NO:13 (nucleic acid)
chain: GATCCCCGAGCTACTGAGGACAGAAATTCAAGAGATTTCTGTCCTCAGTAGCTCTTTTTGGAAA
modifications: expressed from pSuper vector
In the case of B1, the “S. pneumoniae-induced Akt ubiquitination” value in series [1] is “markedly enhanced”. In addition, the “SBE-Luc activity in the absence of Smad3” value in series [2] (Smad3-deficient MEF cells) is “did not enhance”. For the same molecule, the “SBE-Luc activity in cells reconstituted with WT-Smad3” value in series [2] (Smad3-deficient MEF cells + WT-Smad3) is given as “markedly enhanced”. The “TGF-β-induced Smad-binding element (SBE)-dependent promoter activity” value in series [3] (A549 and HeLa cells) is on record as “markedly enhanced”. Further, the “TGF-β-induced SBE-dependent promoter activity, dose-dependent manner” value in series [3] (A549 cells transfected with various amounts) was “enhanced”. Besides, the “TGF-β-induced SBE-Luc activity” value in series [3] (human primary bronchial epithelial NHBE cells) was “enhanced”. Further, the “TGF-α-responsive PAI-1 promoter activity” value in series [4] was “markedly enhanced”. In series [4] (TGF-β stimulated), the “PAI-1 messenger RNA” value is on record as “markedly enhanced”. In series [5], the TGF-β-induced fibrotic response result is “still enhanced”. For the same molecule, in series [6], the “TGF-β-induced PAI-1 expression” value is “no longer enhanced”.
